Measurements published in PMC7466717, “PPARγ Transcription Deficiency Exacerbates High-Fat Diet-Induced Adipocyte Hypertrophy and Insulin Resistance in Mice” (Frontiers in Pharmacology, 2020).
Ends that are not written are not given here.

T1: H6-PPARγ CDE wild-type (human PPARγ, domains from DBD to the C-terminus, residues 103–477) (human, UniProt P37231-2 103-477)
T1 construct: Human PPARγ, CDE domains (DBD, hinge, LBD to the C-terminus), residues 103-477; a C-terminus at 477 fits the 477-residue PPARγ1 isoform; Expressed from pET24a as an N-terminal 6xHis fusion; also called H6-PPARγ CDE WT; PPARγ CDE WT; source: E. coli BL21(DE3), purified (Ni HiTrap HP, SP-Sepharose); not shown: His6, N-terminal, kept
T1 sequence (looked up): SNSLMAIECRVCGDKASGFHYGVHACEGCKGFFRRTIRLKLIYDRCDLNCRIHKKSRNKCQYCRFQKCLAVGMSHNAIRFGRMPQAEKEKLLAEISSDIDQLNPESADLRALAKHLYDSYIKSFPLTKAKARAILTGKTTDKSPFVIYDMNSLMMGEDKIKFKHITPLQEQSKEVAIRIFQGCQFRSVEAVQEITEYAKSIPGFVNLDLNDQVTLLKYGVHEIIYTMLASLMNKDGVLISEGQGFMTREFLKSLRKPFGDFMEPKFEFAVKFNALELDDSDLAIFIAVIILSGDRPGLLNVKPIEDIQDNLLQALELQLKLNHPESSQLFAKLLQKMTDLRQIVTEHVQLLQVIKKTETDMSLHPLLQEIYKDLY


What follows are binders tested against T1, H6-PPARγ CDE wild-type (human PPARγ, …) (assay: AlphaScreen or HTRF; 100 nM H6-PPARγ CDE, 100 nM biotin-labeled peptide, gradient doses of rosiglitazone; hexahistidine detection kit (Perkin-Elmer); 50 mmol/L MOPS, 50 mmol/L NaF, 0.05 mmol/L CHAPS, 0.1 mg/ml bovine serum albumin, pH 7.4). Settings: both partners purified.

binding result | Binder
binds | GHSFADPASNLGLEDIIRKALMGSF (also: biotin label, position not given here, not the gene NCOR2/SMRT) [biotin-labeled NCoR-2 corepressor peptide]
binds | QEPVSPKKKENALLRYLLDKDDTKD (also: biotin label, position not given here) [biotin-labeled SRC2-3 coactivator peptide]
binds | SPSSHSSLTERHKILHRLLQEGSP (also: biotin label, position not given here) [biotin-labeled SRC1-2 coactivator peptide]
